Where a chain is given by its changes, count along the chain named.
T1: human PD-1 ECD-Fc chimeric construct 5 (human, UniProt Q15116 21-170)
T1 construct: 'S56I' as printed; not shown: C-terminal human IgG Fc (printed as residues P101-K330)
T1 chain: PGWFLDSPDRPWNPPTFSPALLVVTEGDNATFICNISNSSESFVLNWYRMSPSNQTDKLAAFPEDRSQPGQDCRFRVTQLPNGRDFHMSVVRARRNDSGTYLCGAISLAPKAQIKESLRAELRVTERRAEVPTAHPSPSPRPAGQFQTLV

T2: human PD-1 ECD-Fc chimeric construct 2 (human, UniProt Q15116 21-170)
T2 construct: not shown: human IgG1 Fc, residues P101-K330
T2 chain: T1 chain with F17L, S18F, L21T, V23T, V24R, T25P, I33T, N35S, I36F, S39T

T3: human PD-1 ECD-Fc chimeric construct 15 (human, UniProt Q15116 21-170)
T3 construct: not shown: human IgG1 Fc, residues P101-K330
T3 chain: T1 chain with I33T, N35S, I36F, S39T, G83T, R84P, D85V, H87K, S89E, V90I

T4: human PD-1 ECD-Fc chimeric construct 12 (human, UniProt Q15116 21-170)
T4 construct: not shown: human IgG1 Fc, residues P101-K330
T4 chain: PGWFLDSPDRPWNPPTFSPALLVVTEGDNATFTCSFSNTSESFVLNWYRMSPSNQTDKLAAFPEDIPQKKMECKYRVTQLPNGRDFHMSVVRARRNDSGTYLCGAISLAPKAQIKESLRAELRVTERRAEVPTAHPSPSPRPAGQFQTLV

T5: human PD-1 ECD-Fc chimeric construct 19 (human, UniProt Q15116 21-170)
T5 construct: not shown: human IgG1 Fc, residues P101-K330
T5 chain: T1 chain with I33T, N35S, I36F, S39T, L102Y, A105L, S107T, L108F, A109S, P110R

T6: human PD-1 ECD-Fc chimeric construct 18 (human, UniProt Q15116 21-170)
T6 construct: not shown: human IgG1 Fc, residues P101-K330
T6 chain: T1 chain with I33T, N35S, I36F, S39T, T100F, L102Y, A105L

B1: 12819.17149 Fab (Fab, V domains shown)
VH: EVQLLESGGGLVQPGGSLRLSCAASGFTFTRYDMVWVRQAPGKGLEWVAGIGDSNKMTRYAPAVKGRATISRDNSKNTLYLQMNSLRAEDTAVYYCAKGSCIACWDEAGRIDAWGQGTLVTVSS
VL: SYELTQDPAVSVALGQTVRITCSGGGSYDGSSYYGWYQQKPGQAPVTVIYNNNNRPSDIPDRFSGSSSGNTASLTITGAQAEDEADYYCGSYDRPETNSDYVGMFGSGTKVTVL
notes: monomeric Fab fragment
B2: 12865.17150 Fab (Fab, V domains shown)
VH: EVQLLESGGGLVQPGGSLRLSCAASGFDFSDHGMQWVRQAPGKGLEYVGVIDTTGRYTYYAPAVKGRATISRDNSKNTLYLQMNSLRAEDTAVYYCAKTTCVGGYLCNTVGSIDAWGQGTLVTVSS
VL: SYELTQDPAVSVALGQTVRITCSGGGSSSYYGWYQQKPGQAPVTVIYDDTNRPSGIPDRFSGSSSGNTASLTITGAQAEDEADYYCGGYEGSSHAGIFGSGTKVTVL
notes: monomeric Fab fragment
B3: 13112.15380 Fab (Fab, V domains shown)
VH: EVQLLESGGGLVQPGGSLRLSCAASGFTFSSYNMFWVRQAPGKGLEFVAEISGSNTGSRTWYAPAVKGRATISRDNSKNTLYLQMNSLRAEDTAVYYCAKSIYGGYCAGGYSCGVGLIDAWGQGTLVTVSS
VL: SYELTQDPAVSVALGQTVRITCSGGSSDYYGWFQQKPGQAPVTVIYYNNKRPSDIPDRFSGSSSGNTASLTITGAQAEDEADYYCGNADSSVGVFGSGTKVTVL

Key:
Assay in all cases: SPR, Fab on captured PD-1-Fc
human PD-1 ECD-Fc D26A = molecular target: T7, human PD-1 ECD-Fc D26A (human, UniProt Q15116 21-170)
T7 construct: not shown: human IgG1 Fc, residues P101-K330

human PD-1 ECD-Fc D48A = molecular target: T8, human PD-1 ECD-Fc D48A (human, UniProt Q15116 21-170)
T8 construct: not shown: human IgG1 Fc, residues P101-K330

human PD-1 ECD-Fc D92A = molecular target: T9, human PD-1 ECD-Fc D92A (human, UniProt Q15116 21-170)
T9 construct: not shown: human IgG1 Fc, residues P101-K330

human PD-1 ECD-Fc S157A = molecular target: T10, human PD-1 ECD-Fc S157A (human, UniProt Q15116 21-170)
T10 construct: not shown: human IgG1 Fc, residues P101-K330

human PD-1 ECD-Fc N116A = molecular target: T11, human PD-1 ECD-Fc N116A (human, UniProt Q15116 21-170)
T11 construct: not shown: human IgG1 Fc, residues P101-K330

human PD-1 ECD-Fc D77A = molecular target: T12, human PD-1 ECD-Fc D77A (human, UniProt Q15116 21-170)
T12 construct: not shown: human IgG1 Fc, residues P101-K330

human PD-1 ECD-Fc E146A = molecular target: T13, human PD-1 ECD-Fc E146A (human, UniProt Q15116 21-170)
T13 construct: not shown: human IgG1 Fc, residues P101-K330

human PD-1 ECD-Fc H155A = molecular target: T14, human PD-1 ECD-Fc H155A (human, UniProt Q15116 21-170)
T14 construct: not shown: human IgG1 Fc, residues P101-K330

human PD-1 ECD-Fc P21A = molecular target: T15, human PD-1 ECD-Fc P21A (human, UniProt Q15116 22-170)
T15 construct: not shown: human IgG1 Fc, residues P101-K330

human PD-1 ECD-Fc T59A = molecular target: T16, human PD-1 ECD-Fc T59A (human, UniProt Q15116 21-170)
T16 construct: not shown: human IgG1 Fc, residues P101-K330

human PD-1 ECD-Fc N66A = molecular target: T17, human PD-1 ECD-Fc N66A (human, UniProt Q15116 21-170)
T17 construct: not shown: human IgG1 Fc, residues P101-K330

human PD-1 ECD-Fc D85A = molecular target: T18, human PD-1 ECD-Fc D85A (human, UniProt Q15116 21-170)
T18 construct: not shown: human IgG1 Fc, residues P101-K330

human PD-1 ECD-Fc C93A = molecular target: T19, human PD-1 ECD-Fc C93A (human, UniProt Q15116 21-170)
T19 construct: not shown: human IgG1 Fc, residues P101-K330

human PD-1 ECD-Fc E136A = molecular target: T20, human PD-1 ECD-Fc E136A (human, UniProt Q15116 21-170)
T20 construct: not shown: human IgG1 Fc, residues P101-K330

[1] = molecular target: T1, human PD-1 ECD-Fc chimeric construct 5
Experimental: (§1) The human PD-1 Fc fusion constructs were harvested after 9 days and supernatants were tested for binding affinity to anti-PD-1 Fabs by Surface Plasmon Resonance (SPR). Culture supernatants containing PD-1 fusion proteins were immobilized onto an G-a-hu-IgG Fc SensEye® (Ssens BV, The Netherlands) for 15 minutes using a Continuous Flow Microspotter (CFM, Wasatch Microfluidics, Salt Lake City, US). After spotting, the SensEye® was positioned in an IBIS MX96 biosensor and captured proteins were fixed to the surface using FixIT kit (Ssens BV, The Netherlands). […] Fab association was performed for 15 minutes and antigen dissociation was performed for 30 minutes. The recorded binding responses were fitted to a simple Langmuir 1:1 binding model with Scrubber 2 software for calculation of the on-rate (kₒₙ or ka), off-rate (koff or kd) and affinity (KD) constants.
(§2) The change in binding affinity of Fab antibodies binding to the mutated PD-1 constructs compared to wild-type were expressed as the ratio of KD mutant/KD wild-type (normalized binding affinity).

[2] = molecular target: T2, human PD-1 ECD-Fc chimeric construct 2
Experimental: as §1, §2

[3] = molecular target: T3, human PD-1 ECD-Fc chimeric construct 15
Experimental: as §1, §2

[4] = molecular target: T4, human PD-1 ECD-Fc chimeric construct 12
Experimental: as §1, §2

[5] = molecular target: T21, human PD-1 ECD-Fc chimeric construct 23 (human, UniProt Q15116 21-170)
T21 construct: not shown: human IgG1 Fc, residues P101-K330

[6] = molecular target: T5, human PD-1 ECD-Fc chimeric construct 19
Experimental: as §1, §2

[7] = molecular target: T6, human PD-1 ECD-Fc chimeric construct 18
Experimental: as §1, §2

T7 sequence (Q15116 21-170 D26A): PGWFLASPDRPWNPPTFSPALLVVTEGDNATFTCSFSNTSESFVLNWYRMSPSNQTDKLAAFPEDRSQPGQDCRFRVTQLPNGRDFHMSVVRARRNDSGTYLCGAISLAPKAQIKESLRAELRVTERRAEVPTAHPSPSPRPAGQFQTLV
T8 sequence (Q15116 21-170 D48A): as the sequence (Q15116 21-170 D26A) above, with A6D, D28A counted along it
T10 sequence (Q15116 21-170 S157A): as the sequence (Q15116 21-170 D26A) above, with A6D, S137A counted along it
T20 sequence (Q15116 21-170 E136A): as the sequence (Q15116 21-170 D26A) above, with A6D, E116A counted along it
T14 sequence (Q15116 21-170 H155A): as the sequence (Q15116 21-170 D26A) above, with A6D, H135A counted along it
T16 sequence (Q15116 21-170 T59A): as the sequence (Q15116 21-170 D26A) above, with A6D, T39A counted along it
T17 sequence (Q15116 21-170 N66A): as the sequence (Q15116 21-170 D26A) above, with A6D, N46A counted along it
T13 sequence (Q15116 21-170 E146A): as the sequence (Q15116 21-170 D26A) above, with A6D, E126A counted along it
T15 sequence (Q15116 21-170 P21A): as the sequence (Q15116 21-170 D26A) above, with P1A, A6D counted along it
T9 sequence (Q15116 21-170 D92A): as the sequence (Q15116 21-170 D26A) above, with A6D, D72A counted along it
T19 sequence (Q15116 21-170 C93A): as the sequence (Q15116 21-170 D26A) above, with A6D, C73A counted along it
T11 sequence (Q15116 21-170 N116A): as the sequence (Q15116 21-170 D26A) above, with A6D, N96A counted along it
T12 sequence (Q15116 21-170 D77A): as the sequence (Q15116 21-170 D26A) above, with A6D, D57A counted along it

| Binder | KD mutant/KD wild-type (human PD-1 ECD-Fc D26A) [ratio] | KD mutant/KD wild-type (human PD-1 ECD-Fc D48A) [ratio] | KD mutant/KD wild-type (human PD-1 ECD-Fc D92A) [ratio] | KD mutant/KD wild-type (human PD-1 ECD-Fc S157A) [ratio] | KD mutant/KD wild-type (human PD-1 ECD-Fc N116A) [ratio] | KD mutant/KD wild-type (human PD-1 ECD-Fc D77A) [ratio] | KD mutant/KD wild-type (human PD-1 ECD-Fc E146A) [ratio] | KD mutant/KD wild-type (human PD-1 ECD-Fc H155A) [ratio] | KD mutant/KD wild-type (human PD-1 ECD-Fc P21A) [ratio] | KD mutant/KD wild-type (human PD-1 ECD-Fc T59A) [ratio] | KD mutant/KD wild-type (human PD-1 ECD-Fc N66A) [ratio] | KD mutant/KD wild-type (human PD-1 ECD-Fc D85A) [ratio] | KD mutant/KD wild-type (human PD-1 ECD-Fc C93A) [ratio] | KD mutant/KD wild-type (human PD-1 ECD-Fc E136A) [ratio] | KD mutant/KD wild-type [1] [ratio] | KD mutant/KD wild-type [2] [ratio] | KD mutant/KD wild-type [3] [ratio] | KD mutant/KD wild-type [4] [ratio] | KD mutant/KD wild-type [5] [ratio] | KD mutant/KD wild-type [7] [ratio] | also measured |
| --- | --- | --- | --- | --- | --- | --- | --- | --- | --- | --- | --- | --- | --- | --- | --- | --- | --- | --- | --- | --- | --- |
| B1 | 1.1 | 1 | 1.2 | 0.9 | 1.4 | 2.8 | 1.2 | 1.1 | 2.1 | 0.9 | 2.2 | 2.5 | 1.2 | 0.8 | 1.2 | 2.3 | 1.3 | 2.2 | 1.7 | 3.8 | KD mutant/KD wild-type [6]: 175 ratio |
| B2 | 0.8 | 0.6 | 0.8 | 1 | 0.8 | 0.3 | 1 | 1 | 1 | 1 | 2.1 | 1.6 | 0.9 | – | 0.9 | 0.7 | 0.8 | 0.6 | 1 | 4.6 | binding result (human PD-1 ECD-Fc E136A): no binding (tested: 1 nM to 50 nM); binding result [6]: no binding (tested: 1 nM to 50 nM) |
| B3 | 1.2 | 2.4 | 0.9 | 1 | 0.9 | 1 | 1 | 1 | 1.1 | 0.9 | 1 | 0.9 | 1.1 | 1 | 2.5 | 1 | 0.9 | 0.6 | 1.5 | 1.5 | KD mutant/KD wild-type [6]: 0.8 ratio |

Reference: patent publication US20210284734A1 (SYMPHOGEN A S, published 2021)
